# Laboratory results from the NTF2 design screens of Basanta et al. (2020).
# Assay: protease stability score; higher = more stable; yeast display proteolysis, trypsin and chymotrypsin;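 also: relative to predicted unfolded state with 0 unfolded-like and 1 meaning tenfold more protease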
row,Sequence,protease stability score
1,DEREQEAHRAIEKFMHYVRTGNEDKLKEFLDPNALNLFDGRHDVGREDVTESMIEIMRHLGVTLHDVKITDMRTQGDYLTVNGWFNLEYDGVRDNHKVFIHSRKVDGKWIITKIDWR,1.26
2,SEDDEELEEAARRTLKIIRTGDEDLYTRLADPHDKMQIDGVETHGMEEISRWLKEHRDRFKGLKMIERRIRVTSIDGQVRVHIDTELRVDGVTQRVELNWIASKVDGRWRLERVEFIIR,0.745
3,DEEEHIFQELIELWQTAMATGDEERTDRLLDPNAKIVINGVELHGMDEIKRLLEQMRLHVHDVKIDEIKFQGDYLHIDTTSDIIMRINGREHRIIVKTTVRMLKFDGRWWLHVISIR,1.93
4,SEDEEEVKHMVDEWWKQVLTGDEESLMRLIDPHAKLDFENVTYHGRDELSRYLTKLLREIRFRDIKIHDVRVYDGKVDLHTHMNIIVDGRTHILDTRMIIVKINGRWYIHQVRIK,2.42
5,DEDEEISHRMVRLIMQLMVTGDEESLKEYFDPNTRLFIDGRNNHGRELAVDEIQKHFEELGVDHIEIRIHHKDAQGDFVEIHIRLIIHVGDFEVRSTVHIFVRKVDGRWMIEKIEIK,2.03
6,DDLEREAEEFHRLMHKSVRTGDEKLIEEMFDPNVRLDINGREMHGRHDVVELERRVDHSEWHIEDIRVVGEWADIRGELVIQVGDKEHIYKTRLIVLKIDGKWRTTEMHVR,0.731
7,DDDKREMEEIARRWVESLETGDEDTLTKLADPNTKLELLIDGRENNLIGMRYWLEFLERFKNVTIKFKRMRVQGDKADIETEVNINGQRFRVRIELWVIDGRLHTLHIRIE,1.23
8,SDYERLFTIAVQLVIDVIQTGNFRELERLLDPNVRVDINGQEFVGREELVHWMHKVIRRADHLEITLRDVELQGDKLVLDMELVERYDGKEYRTRIRVFAHKINGQWYIRTFEVR,1.51
9,DDEEEVAERAARIVHHLYLTGNPEELLKYFDPDVRWIFNGKTSIGRENVVEMFDDVHRMFGIDVRTSDINSYDIVDGRIEVDSRLHLHINGRKINHHFRIESIKINGRWWLKRIDID,0.933
10,DEDREWIERFNRILIESLTTGDEHTLKELIDPNARLVINGRDIHGREEFVRLLSEMGVKHFHVHDVKVVGNKAVTRGILYFNGREYDVDVFTRKIDGRWLYESLEVK,2.02
11,DEEKEEARRVLEIFIRSTRTGNFKENTEQMDPNVRIDINGVELHGREDAIRLAVEARIHRVEIEHVTTIGDKVEVHGHVDGTFNGQRTRTRLYVVIEKVDGRWLISEYRYH,1.29
12,DEDKHLSQLAIELLHRFLWTGDEHDLEHLMDPNAKLEQGDKTLHGRELVLEFFDHLVEEAGITKVDHKLRRIETYGNKVNIHGDLHVNGRTIRIEIIAVKINGKWVVRSVRIK,1.21
13,DERERDIREWMRIYIEMWETGDEDKLLTMIDPHYREETENEDIHGREQAHKKIKDIKERADHLHIRVHDVDIIDGVAVLDVEILIIIGDKVIRVRTTIIMRKINGKWFIERVHIK,0.235
14,HEDEKVLKEMLRILAEVITTGNEEVMKRLADPHVRIDWNGRDIIGMEERYRKLREMGIEFEVRIHLRDTRSVGEKVEFITQLDVHIRVGDKTINFHQETRVDMEKVDGRWRVNEEKVV,0.415
15,DEHEELMEEFMRKILHAWLTGDWDLINEMADPDVRTNINGRNEIGREEFEKLWQEIRFRRFDLKRWHVFNGVIHIDGHIDGEVNGRRTKRDVLIRLFIFNGRLKKEEVEYL,1.55
16,HEEHDEMQEALRRFIDILHTGDEKERKELADPHVRIDVDGVDHHGREWLTKWTVRLAREMRIHPEIKHSEVFNGQIELHTSEKVDFNGVHEIIESFLLVIKINGRWFLTHVQVH,0.92
17,DEDTHMVERALTLLYKTLHTGDEDLYRELIDPHVRVEINGQELIGRELLIEWFREMVERFPNIRIEIHDIRLFDGRLESDSRLHYGDKSREVHLIARKVNGQWRLESLKVE,1.41
18,SEDEHQSKLALELLQESSYTGDWKTSQDLMDPHARFVIGDKYVHGMEEVSRMMEEIRIEEIHIRKIHTVGNKIEIKGEIRIRIGDKHTSTEVEWVASKVNGRWLLEELVVH,0.511
19,DEREKRLKDIALIVMHLLLTGDEERFHELFDPDTKMTLIFNGQIETSHGMEEVRELLRYWLEEIRIEHYHLTEIHLIGDKTHVHGELVGEVNGKRFKTHIHITIVVIDGKVHSVEFELR,1.77
20,SEFDEASREAHEWFVELSKTGDEHEVKKFFDPNMRIDWNGVELIGRDTASKFFHELRFEHVRMEDVKFIDGVLRLDSHSIVNVNGQRFETRDDIVIEKFNGQWILKSIRVE,1
21,SQDERDVKKFVDLYERTVETGNEEDMERLMDPHVRMEVGDKHEHGRHIVIRVLHELGADHVDIHHVNVQGEKIHIHGRLHVDGRIHHVEIHAKKVNGKWIMKLVIIR,1.11
22,DEDHKFAVEILRRLMEIWFTGNEEELKHLADPDYRLRVRINGKEITRHGMEQSREQIKRWIDRIDHYEIRIRHLEWQGDKSHSHTELHMRFDGVIKKFETRIIVIVIDGKVSEIIIEIN,1.61
23,DEDEEDVDRVSRRWARAMTTGDEDELRELLDPNTRYVQGDKHLHGRTQFERHLREMRFIIHDVRVDNITIIDGRMHIHGHVVGELRTEDHEHHFIFRFHLIVMKINGKWLIKHVDVQ,0.819
24,DEYKRDADEVIRLWAEAMETGDEKLFLELFDPDTRSIFNGVELHGRQDIEMWRNRYDHVRHVRTEVEDSHIYNGRVEDHVRLILDVEVNGQREHHSHEILVYSVKFDGRWHFTMVEIR,0.607
25,DDRERDSREAQEILREILLTGDFKTLYELADPHYRHNWDGRTIHGMETIVKLFLDLGMEIRDMRFRHLEIQGDFIHLDVDINGRINGKEKNVKIRVHARKIDGRWVLHSSERD,1.38

row,Sequence,protease stability score
1,SEREQTVRHWVELLIHLLITGDEETLVHLLDPHARADIDGVEMHGRKTTEFWLKLFPHIKIELRRVEIQGEKVHMDTTMIQGEKERSTRIHLDVINGRIKRHSYEIE,0.262
2,SEEYKRVKHMFDLWLHALITGDEDLMEELADPHVRHDINGVKNHGWETLIDREREWRIKRIDHRRSDAVNGRMHSDVHIDGIFDGKRHETDVTIHMIVVNGKFKTVEIRYH,1.08
3,SEEERETRKIFEDLLKTMETGDWRHLHRLIDPNARLIVNGQEFHGREDLIRLLEQLRIRSMRITDVRNQGNKSHVDGTVEGEWNGRTDNNRTEVHLVVVDGVLKHVEFHLH,1.47
4,DEREEELHHMLEVLEFAFHTGDFEKLSKMFDPHVRIDVNGQELHGWKHAHEHIEDLFRKVKNIRLEFRDIRFQGDKIDIDGIMIFNGVRHEVKIITVKVNGRWLWRSINIH,2.33
5,SEDEEKSKRDAQHWFNNWLTGDWRRTLELADPHARIDINGKELHGMHESLELLTRLIEKLGVDHIEMKKSDVVGDKMHIHGHLDIDGQKRDLTIFLLIIDGRLKHSQFELT,0.165
6,SEDEIARHILHKMMTGDEDSFEELLDPNARLIVGNKHSHGRERVIEDWKRDLELAGFKHSEVKRIHFQGEKSHVHGHINVNGKEYRVLFILVIVNGRLKEVELHVTDEREEKYLHRTWE,0.007
7,SELEHMLREVLHLLYESLETGDEELLETLVDPRMRLYINGQLIHGMDLAVEIELRRSREMRFRDWKIHSIHVQGNKAFMDVRHVGQINGVHISLEHEILIHKINGRWTIEERITK,0.43
8,DEEENMAEWAIRLMKHVIETGNFEEFLRLFDPNTRMHVNGVESHGRERSSKVLKEWLEIMGVDHLKVRDEKFSVQGNKLHIHLDTRTEQGDKEIETHIEVISYKIDGRWRQKEIRFEVR,1.69
9,SELEKFHEESLKSVLESWITGDEHLNRDLVDPDAKLNVNGREHHGWELITILLSQMRVHDFKRRDIRFQGDKIFIDGEIDGEINGQRIRLRIDIIAVKVNGKWLIKEVRVH,1.69
10,SEEEELLRRLFELFYKIWHTGDFRSLYENADPNTQLDVGDKRFHGMEVVIEALRQIWEKFGFKVELIDEHHVINGQINMDGLLDINGKKMKTHINLRLIDGVMKTIRIDIR,0.049
11,DEHEHMTELAHRIIMKTWETGDEEEQHRMFDPHARLIIDGKNIHGREQIQREMKRFSEEIRLRDATIHRVEIQGNKVISDWRLRIDVDGREVHFESHVIIRKVNGRWRIDHLILN,1.21
12,RDEEEEARRMMEIFLEDVRTGDEDSLKELADPNVKSEINGVELVGREEVLKTLREILRELGVSNVEVRLHRIHVYDGRAHIDGRLNVNGRELEMHVDMEKVDGRWRIRRIELR,2.27
13,DELHKHAEHMAKLIVETLETGDEDKIRELADPNVRMEIGDKRTIGREELTKLLRKWLSEWRVHDMHVESVEMQGDYTHLHTSVRGEVNGRHRELDTRIDVLVVNGRLKSLRLEIR,1.04
14,DDKDELTRTALEIFEYLEITGDWHVVSREADPHVRIVIGDKHLHGMEIFMDLTEELGVDHSSVHSLRSQGDKIDIDIELHQGEKSFRTKVTAEKVDGRWLIKRVLFR,1.3
15,SEDQEAMDRAIKIFEEIVDTGNERLSRENMDPRTRIVFEGVHLHGREEAVRHHRELWKRVDVMEMRTEDYRFFDGRVHQTTRLHLNYNGREETYETRFLVEKVNGKWFIKSIIIV,0.272
16,RDTEETVENASKRWVRTMETGDEDVLHRLLDPHVRVEAENHEIHGREIVSTHIREILEKLGMTIHIHLKDVRVQGNKAEIDMHIEYIIDGRITSHDYTLINRKINGRWLVERVIIN,0.31
17,SHEEHEMHNALKLLLDAWRTGDEDSLNNNADPRMKIKVNGKEFVGMEHMTHFLRELLEELRFTDSTVTELDIVNGVLISVTRLHIEVGDKRMDFHTRLVFTKVNGRWRLHSLVLI,1.99
18,DEDEELTRQIIEHIERNIETGDERRYRELVDPNARVDYNGVDKHGMHAILEVWNHIQHEFRGATIEHSRVRDWRFQGDKVILNFEHYFRIGDKNWRLDTRIIVDKVDGRWVIREVQIR,1.47
19,SELDDHMRRIMDHYIEDLVTGNEDRQQKLADPNVRVIIWQGDKIYHLHGREEWVKALRELRWHEIHVRHREPVNGKTHVDTEVDGEINGRRHRHRVHLTLLVVDGKVKLVEFDHH,1.37
20,DRLHEMAREFSEEWSRAVKTGDEQLYSKLVDPNARFSIGEFDFHGRDEVSRIMKHWRIEDVHLSSVSVQGEKVEIRGHLHGDFDGRRQDVEVIIIVLKVNGRWFLRDLEFR,1.31
21,SEEERESKEATKLHLDALRTGNEELLRHLFDPDVKVDVNGKHLHGWKLLTEVLQRMGVKHVELTDFRVYDGRIDLREKWDVDGKEIEVFIHARKFNGQWHTESIHIK,1.15
22,SEKHEHAHRIMEIILRAWETGDEESLRELLDPNVRFIQGDKDVVGREEMSRVLHEFREHIRLKSIHIHDKHAINGVFHLDIRIWGNVNGRDDHIEVNYTVVIVDGKIRDLEVRIH,1.06
23,DHWEHVERMYSHEVLHMLETGDEHKFNKLMDPNARIDVGEWDLIGMHRVSHALKEVRDELGIKHSEVKHVDIFNGRVEIHTEVHVDGRSHKVRIEVIYVNGRTKWMRYEQH,0.717
24,SELEHWAERLTRILIHSLYTGDEESLLKLADPRVRNDVNGVHVVGMEWFLKVWNKYRDELRIHHIEVRDIKIINGVAHSTVREDGEINGKKLDVETHVELDTVNGRLRIVHIRIV,1.58
25,DEHEELMRRLMQLWMENWLTGDEDVLYKLADPNAKWDINGVKLHGREKMNEDRKEILERHGATFYLEIRDFTVINGRAHVDGHEDYIINGKRIRTDVQIILVIVNGKFKSEEVKIR,0.292
